Common to all, as to test: cell_activity
For data set [1], the system named is ZFN 32398 (synthetic construct). Conditions: pair 32401/32398, DLSSA reporter in Neuro2A; pVAX control 0.16.
The subject of data set [2] is ZFN 9940 (synthetic construct). Conditions: pair 12897/9940 with donor, CF iPS cells; 21 of 64 clones; scale: % puroR clones with targeted insertion.
For data set [3], the system named is ZFN 32366 (synthetic construct). Conditions: pair 32365/32366, K562 cells.
Data set [4] deals with ZFN 12897 (synthetic construct). Conditions: pair 12897/9940 with donor, CF iPS cells; 21 of 64 clones; scale: % puroR clones with targeted insertion.
For data set [5], the system named is ZFN 32365 (synthetic construct). Conditions: pair 32365/32366, K562 cells.
Data set [6] has as its system ZFN 32376 (synthetic construct). Conditions: pair 32375/32376, K562 cells.
Data set [7] deals with ZFN 32401 (synthetic construct). Conditions: pair 32401/32398, DLSSA reporter in Neuro2A; pVAX control 0.16.
Data set [8] has as its system ZFN 32375 (synthetic construct). Conditions: pair 32375/32376, K562 cells.

“ACACCAATGATATTTTCTTTAATGGTGC (double strand) [32398 target site]”: the activity (firefly/renilla ratio) in data set [1] amounted to 1.45.

“AGTGATTATGGGAGAACTGGATGTTCACAGTCAGTCCACACGTC (double strand) [9940 target site]” gave an activity in data set [2] of 33.

Consider “ATATAGATACAGAAGCGTCATCAAAGCA (double strand) [32366 target site]”, for which the activity in data set [3] was found to be 9 % indels.

Take “ATTAGAAGTGAAGTCTGGAAATAAAACC (double strand) [12897 target site]”: in data set [4], the activity turned out to be 33.

In the case of “CATCATAGGAAACACCAAAGATGATATT (double strand) [32365 target site]”, the activity in data set [5] is 9 % indels.

On to “CCAACTAGAAGAGGTAAGAAACTATGTG (double strand) [32376 target site]”, for which the activity in data set [6] is 12 % indels.

As for “CCTATGATGAATATAGATACAGAAGCGT (double strand) [32401 target site]”, the activity (firefly/renilla ratio) in data set [7] came to 1.45.

“GCTTTGATGACGCTTCTGTATCTATATT (double strand) [32375 target site]” registered an activity in data set [8] of 12 % indels.

The record behind these values is patent US20130145485.
